The results in this text go back to patent publication US12269859B2, “Synthetic immune receptors and methods of use thereof” (Angeles Therapeutics, Inc., priority 2016, dated 2025).

This test concerns target antigen-expressing cell line. Briefly: Jurkat NFAT-GFP assay, coculture with target cell lines expressing the respective target antigen (summary Table 10A). Format: cell-based, human. More on the design: key: The signs +/−, +, 2+ etc. after the name of the cell lines indicate the relative degree of positivity on the Jurkat-NFAT-GFP assay as measured by the % GFP positive cells; +: relative degree of positivity on the Jurkat-NFAT-GFP assay as measured by the % GFP positive cells; 2+: relative degree of positivity on the Jurkat-NFAT-GFP assay as measured by the % GFP positive cells. Conditions: relative % GFP positive cells; for NFAT-GFP ASSAY Positive Cell lines: NALM6: SIR-expressing Jurkat-NFAT-GFP cells cocultured with NALM6; for NFAT-GFP ASSAY Positive Cell lines: RAJI: SIR-expressing Jurkat-NFAT-GFP cells cocultured with RAJI. The procedure, abridged: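 Positivity is scored when SIR-expressing reporter Jurkat cells show more GFP-positive cells than parental controls after coculture with the antigen-bearing line. Effector-to-target ratio is about 1:2, coculture lasts roughly 4–18 hours, and GFP is quantified by FACS.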

B1: 030217-K05 (protein)
chain: MALPVTALLLPLALLLHAARPDEIVLTQSPATLSLSPGERATLSCSASSSVSYMHWYQQKPGQAPRLLIYDTSKLASGIPARFSGSGSGTDFTLTISSLEPEDVAVYYCFQGSVYPFTFGQGTKLEIKRGGGGSGGGGSGGGGSQVQLQESGPGLVKPSQTLSLTCTVSGGSISTSGMGVGWIRQHPGKGLEWIGHIWWDDDKRYNPALKSRVTISVDTSKNQFSLKLSSVTAADTAVYYCARMELWSYYFDYWGQGTLVTVSSLEGKPIPNPLLGLDSTGSGEDLKNVFPPEVAVFEPSKAEIAHTQKATLVCLATGFYPDHVELSWWVNGKEVHSGVCTDPQPLKEQPALNDSRYCLSSRLRVSATFWQNPRNHFRCQVQFYGLSENDEWTQDRAKPVTQIVSAEAWGRADCGITSASYHQGVLSATILYEILLGKATLYAVLVSALVLMAMVKRKDSRGRAKRSGSGATNFSLLKQAGDVEENPGPTSMALPVTALLLPLALLLHAARPDIVMTQSHKFMSTSVGDRVSVTCKASQNVGNNVAWYQQKPGQSPKVLIYSASYRYSGVPDRFTGSGSGTDFTLTISNVQSEDLAEYFCQQYNTYPFTFGSGTKLEIKGGGGSGGGGSGGGGSEVQLEESGGGLVQPGGSMKLSCVASGFTFSNYWMNWVRQSPEKGLEWVAEIRFKSHNYATHFAESVKGRFTISRDDSKSSVYLQMNNLRAEDTGIYYCTRRIGNSDYDWWYFDVWGAGTSVTVSSASTREQKLISEEDGSGIQNPDPAVYQLRDSKSSDKSVCLFTDFDSQTNVSQSKDSDVYITDKCVLDMRSMDFKSNSAVAWSNKSDFACANAFNNSIIPEDTFFPSSDVPCDVKLVEKSFETDTNLNFQNLSVIGFRILLLKVAGFNLLMTLRLWSSRAKRSGSGVKQTLNFDLLKLAGDVESNPGPSRGHMTEYKPTVRLATRDDVPRAVRTLAAAFADYPATRHTVDPDRHIERVTELQELFLTRVGLDIGKVWVADDGAAVAVWTTPESVEAGAVFAEIGPRMAELSGSRLAAQQQMEGLLAPHRPKEPAWFLATVGVSPDHQGKGLGSAVVLPGVEAAERAGVPAFLETSAPRNLPFYERLGFTVTADVEVPEGPRTWCMTRKPGA
As to B1, the “NFAT-GFP ASSAY Positive Cell lines: NALM6” value was “(+)”.

B2: 040716-F05 (protein)
chain: MALPVTALLLPLALLLHAARPDEIVLTQSPATLSLSPGERATLSCSASSSVSYMHWYQQKPGQAPRLLIYDTSKLASGIPARFSGSGSGTDFTLTISSLEPEDVAVYYCFQGSVYPFTFGQGTKLEIKRGGGGSGGGGSGGGGSQVQLQESGPGLVKPSQTLSLTCTVSGGSISTSGMGVGWIRQHPGKGLEWIGHIWWDDDKRYNPALKSRVTISVDTSKNQFSLKLSSVTAADTAVYYCARMELWSYYFDYWGQGTLVTVSSLEGKPIPNPLLGLDSTGSGEDLKNVFPPEVAVFEPSKAEIAHTQKATLVCLATGFYPDHVELSWWVNGKEVHSGVCTDPQPLKEQPALNDSRYCLSSRLRVSATFWQNPRNHFRCQVQFYGLSENDEWTQDRAKPVTQIVSAEAWGRADCGITSASYHQGVLSATILYEILLGKATLYAVLVSALVLMAMVKRKDSRGRAKRSGSGATNFSLLKQAGDVEENPGPTSTMALPVTALLLPLALLLHAARPDIQMTQSPSSLSASLGERVSLTCRATQELSGYLSWLQQKPDGTIKRLIYAASTLDSGVPKRFSGNRSGSDYSLTISSLESEDFADYYCLQYAIYPYTFGGGTKLEIKGGGGSGGGGSGGGGSEVQLQQSGPELVKPGASVKMSCKASGYTFTSYFIHWVKQKPGQGLEWIGFINPYNDGSKYNEKFKGKATLTSDKSSSTAYMELSSLTSEDSAVYYCTRDDGYYGYAMDYWGQGTSVTVSSTREQKLISEEDGSGIQNPDPAVYQLRDSKSSDKSVCLFTDFDSQTNVSQSKDSDVYITDKCVLDMRSMDFKSNSAVAWSNKSDFACANAFNNSIIPEDTFFPSSDVPCDVKLVEKSFETDTNLNFQNLSVIGFRILLLKVAGFNLLMTLRLWSSRAKRSGSGVKQTLNFDLLKLAGDVESNPGPSRGHMTEYKPTVRLATRDDVPRAVRTLAAAFADYPATRHTVDPDRHIERVTELQELFLTRVGLDIGKVWVADDGAAVAVWTTPESVEAGAVFAEIGPRMAELSGSRLAAQQQMEGLLAPHRPKEPAWFLATVGVSPDHQGKGLGSAVVLPGVEAAERAGVPAFLETSAPRNLPFYERLGFTVTADVEVPEGPRTWCMTRKPGA
modifications: Synthetic polynucleotide encoding a SIR
Consider B2, for which the “NFAT-GFP ASSAY Positive Cell lines: RAJI” value is “RAJI (+/−)”.

B3: 040716-I04 (protein)
chain: MALPVTALLLPLALLLHAARPDEIVLTQSPATLSLSPGERATLSCSASSSVSYMHWYQQKPGQAPRLLIYDTSKLASGIPARFSGSGSGTDFTLTISSLEPEDVAVYYCFQGSVYPFTFGQGTKLEIKRGGGGSGGGGSGGGGSQVQLQESGPGLVKPSQTLSLTCTVSGGSISTSGMGVGWIRQHPGKGLEWIGHIWWDDDKRYNPALKSRVTISVDTSKNQFSLKLSSVTAADTAVYYCARMELWSYYFDYWGQGTLVTVSSLEGKPIPNPLLGLDSTGSGEDLKNVFPPEVAVFEPSKAEIAHTQKATLVCLATGFYPDHVELSWWVNGKEVHSGVCTDPQPLKEQPALNDSRYCLSSRLRVSATFWQNPRNHFRCQVQFYGLSENDEWTQDRAKPVTQIVSAEAWGRADCGITSASYHQGVLSATILYEILLGKATLYAVLVSALVLMAMVKRKDSRGRAKRSGSGATNFSLLKQAGDVEENPGPTSTMALPVTALLLPLALLLHAARPDIVMTQTPLTLSVTIGQPASISCKSSQSLLDSDGKTYLNWLLQRPGQSPERLIYLVSKLDSGVPDRFTGSGSGTDFTLKISRVEAEDLGVYCCWQGTHFPYTFGGGTKVEIKGGGGGSGGGGSGGGGSQVQLQQPGAELVRPGASVKLSCKASGYTFTSYWMNWVKQRPGQGLEWIGMIDPSDSETHYNHIFKDKATLTVDKSSSTAYLQLSSLTSEDSAVYYCARNLYLWGQGTSVTVSSTREQKLISEEDGSGIQNPDPAVYQLRDSKSSDKSVCLFTDFDSQTNVSQSKDSDVYITDKCVLDMRSMDFKSNSAVAWSNKSDFACANAFNNSIIPEDTFFPSSDVPCDVKLVEKSFETDTNLNFQNLSVIGFRILLLKVAGFNLLMTLRLWSSRAKRSGSGVKQTLNFDLLKLAGDVESNPGPSRGHMTEYKPTVRLATRDDVPRAVRTLAAAFADYPATRHTVDPDRHIERVTELQELFLTRVGLDIGKVWVADDGAAVAVWTTPESVEAGAVFAEIGPRMAELSGSRLAAQQQMEGLLAPHRPKEPAWFLATVGVSPDHQGKGLGSAVVLPGVEAAERAGVPAFLETSAPRNLPFYERLGFTVTADVEVPEGPRTWCMTRKPGA
modifications: Synthetic polynucleotide encoding a SIR
Consider B3, for which the “NFAT-GFP ASSAY Positive Cell lines: RAJI” value is on record as “RAJI (+/−), U266”. Further, the “NFAT-GFP ASSAY Positive Cell lines: L363” value (SIR-expressing Jurkat-NFAT-GFP cells cocultured with L363) was “(+/−), L363 (+/−)”. In addition, for the setting “SIR-expressing Jurkat-NFAT-GFP cells cocultured with U266”, the “NFAT-GFP ASSAY Positive Cell lines: U266” value is reported as “(+/−), L363 (+/−)”.

B4: 030217-J05 (protein)
chain: MALPVTALLLPLALLLHAARPDEIVLTQSPATLSLSPGERATLSCSASSSVSYMHWYQQKPGQAPRLLIYDTSKLASGIPARFSGSGSGTDFTLTISSLEPEDVAVYYCFQGSVYPFTFGQGTKLEIKRGGGGSGGGGSGGGGSQVQLQESGPGLVKPSQTLSLTCTVSGGSISTSGMGVGWIRQHPGKGLEWIGHIWWDDDKRYNPALKSRVTISVDTSKNQFSLKLSSVTAADTAVYYCARMELWSYYFDYWGQGTLVTVSSLEGKPIPNPLLGLDSTGSGEDLKNVFPPEVAVFEPSKAEIAHTQKATLVCLATGFYPDHVELSWWVNGKEVHSGVCTDPQPLKEQPALNDSRYCLSSRLRVSATFWQNPRNHFRCQVQFYGLSENDEWTQDRAKPVTQIVSAEAWGRADCGITSASYHQGVLSATILYEILLGKATLYAVLVSALVLMAMVKRKDSRGRAKRSGSGATNFSLLKQAGDVEENPGPTSMALPVTALLLPLALLLHAARPDIQMTQSPASLSASVGETVTIICRASVNIYSYLAWYQQKQGKSPQLLVYNAKILAEGVPSRFSGSGSGTQFSLKINSLQPEDFGSYYCQHHYGTFTFGSGTKLEIKRGGGGSGGGGSGGGGSQVQLKESGPGLVAPSQSLSITCTISGFSLTSYGVHWVRQPPGKGLEWLVVIWSDGSTTYNSALKSRLSISKDNSKSQVFLKMNSLQTDDTAIYYCASHYGSTLAFASWGHGTLVTVSAATREQKLISEEDGSGIQNPDPAVYQLRDSKSSDKSVCLFTDFDSQTNVSQSKDSDVYITDKCVLDMRSMDFKSNSAVAWSNKSDFACANAFNNSIIPEDTFFPSSDVPCDVKLVEKSFETDTNLNFQNLSVIGFRILLLKVAGFNLLMTLRLWSSRAKRSGSGVKQTLNFDLLKLAGDVESNPGPSRGHMTEYKPTVRLATRDDVPRAVRTLAAAFADYPATRHTVDPDRHIERVTELQELFLTRVGLDIGKVWVADDGAAVAVWTTPESVEAGAVFAEIGPRMAELSGSRLAAQQQMEGLLAPHRPKEPAWFLATVGVSPDHQGKGLGSAVVLPGVEAAERAGVPAFLETSAPRNLPFYERLGFTVTADVEVPEGPRTWCMTRKPGA
In the case of B4, the “NFAT-GFP ASSAY Positive Cell lines: NALM6” value is recorded as “(+/−)” and the “NFAT-GFP ASSAY Positive Cell lines: RAJI” value is recorded as “RAJI (2+), NALM6”.

B5: 041216 G04 (protein)
chain: MALPVTALLLPLALLLHAARPDEIVLTQSPATLSLSPGERATLSCSASSSVSYMHWYQQKPGQAPRLLIYDTSKLASGIPARFSGSGSGTDFTLTISSLEPEDVAVYYCFQGSVYPFTFGQGTKLEIKRGGGGSGGGGSGGGGSQVQLQESGPGLVKPSQTLSLTCTVSGGSISTSGMGVGWIRQHPGKGLEWIGHIWWDDDKRYNPALKSRVTISVDTSKNQFSLKLSSVTAADTAVYYCARMELWSYYFDYWGQGTLVTVSSLEGKPIPNPLLGLDSTGSGEDLKNVFPPEVAVFEPSKAEIAHTQKATLVCLATGFYPDHVELSWWVNGKEVHSGVCTDPQPLKEQPALNDSRYCLSSRLRVSATFWQNPRNHFRCQVQFYGLSENDEWTQDRAKPVTQIVSAEAWGRADCGITSASYHQGVLSATILYEILLGKATLYAVLVSALVLMAMVKRKDSRGRAKRSGSGATNFSLLKQAGDVEENPGPTSMDWIWRILFLVGAATGAHSFEVQLVESGGGLVQAGGSLRLSCAASGSIFSGNVMGWYRRQAPGKEREWVAAIASGGSIYYRDSVKGRFTISRDNAKNTVYLQMNSLKPEDTAVYYCNSHPPTLPYWGLGTQVTVSSTREQKLISEEDGSGIQNPDPAVYQLRDSKSSDKSVCLFTDFDSQTNVSQSKDSDVYITDKCVLDMRSMDFKSNSAVAWSNKSDFACANAFNNSIIPEDTFFPSSDVPCDVKLVEKSFETDTNLNFQNLSVIGFRILLLKVAGFNLLMTLRLWSSRAKRSGSGVKQTLNFDLLKLAGDVESNPGPSRGHMTEYKPTVRLATRDDVPRAVRTLAAAFADYPATRHTVDPDRHIERVTELQELFLTRVGLDIGKVWVADDGAAVAVWTTPESVEAGAVFAEIGPRMAELSGSRLAAQQQMEGLLAPHRPKEPAWFLATVGVSPDHQGKGLGSAVVLPGVEAAERAGVPAFLETSAPRNLPFYERLGFTVTADVEVPEGPRTWCMTRKPGA
modifications: Synthetic polynucleotide encoding a SIR
As for B5, the “NFAT-GFP ASSAY Positive Cell lines: RAJI” value is reported as “RAJI (+/−)”.
